Earlier results on three substances are cited in PMC12818765.

The pKa is the pH at which an ionisable group is half protonated.

Some targets named below: Asp101 (UniProt position 119, KKIVSDGNGMN); Asp119 (UniProt position 137, RCKGTDVQAWI); Asp18 (UniProt position 36, KRHGLDNYRGY); Asp48 (UniProt position 66, TNRNTDGSTDY); Asp52 (UniProt position 70, TDGSTDYGILQ); Asp66 (UniProt position 84, RWWCNDGRTPG); Asp87 (UniProt position 105, ALLSSDITASV); Cterm129 (UniProt position 147, IRGCRL-----); Glu35 (UniProt position 53, CAAKFESNFNT); Glu7 (UniProt position 25, VFGRCELAAAM); His15 (UniProt position 33, AAMKRHGLDNY); Lys1 (UniProt position 19, LAALGKVFGRC); Lys116 (UniProt position 134, WRNRCKGTDVQ); Lys13 (UniProt position 31, LAAAMKRHGLD); Lys33 (UniProt position 51, WVCAAKFESNF); Lys96 (UniProt position 114, SVNCAKKIVSD); Lys97 (UniProt position 115, VNCAKKIVSDG); Nterm1 (UniProt position 19, LAALGKVFGRC); Tyr20 (UniProt position 38, HGLDNYRGYSL); Tyr23 (UniProt position 41, DNYRGYSLGNW); Tyr53 (UniProt position 71, DGSTDYGILQI).

The next series has as its target Asp40 (UniProt position 122, RLLLVDTPETK). The settings on record: not stated.
For the next series, the target named is Asp95 (UniProt position 177, AYIYADGKMVN). As to conditions: not stated.
The next series concerns the target Glu10 (UniProt position 92, KKLHKEPATLI). The settings on record: not stated.
A further series has as its target Glu101 (UniProt position 183, GKMVNEALVRQ). As to conditions: not stated.
A further series deals with Glu122 (UniProt position 204, PNNTHEQHLRK). As to conditions: not stated.
Another series deals with Glu129 (UniProt position 211, HLRKSEAQAKK). The settings on record: not stated.
The next series concerns the target Glu135 (UniProt position 217, AQAKKEKLNIW). As to conditions: not stated.
The next series deals with Glu43 (UniProt position 125, LVDTPETKHPK). As to conditions: not stated.
The next series concerns the target Glu52 (UniProt position 134, PKKGVEKYGPE). The settings on record: not stated.
In a further series the target is Glu57 (UniProt position 139, EKYGPEASAFT). The settings on record: not stated.
Another series has as its target Glu67 (UniProt position 149, TKKMVENAKKI). As to conditions: not stated.
The next series deals with Glu73 (UniProt position 155, NAKKIEVEFDK). The settings on record: not stated.
The target in a further series is Glu75 (UniProt position 157, KKIEVEFDKGQ). The settings on record: not stated.
Another series addresses His121 (UniProt position 203, KPNNTHEQHLR). As to conditions: not stated.
The next series addresses His124 (UniProt position 206, NTHEQHLRKSE). The settings on record: not stated.
Another series has as its target His46 (UniProt position 128, TPETKHPKKGV). As to conditions: not stated.
The next series addresses His8 (UniProt position 90, STKKLHKEPAT). The settings on record: not stated.

On to “Hen egg-white lysozyme (HEWL, lysozyme C) (Gallus gallus)”, for which the pKa is 4.09 with Asp101; 3.20 with Asp119; 2.66 with Asp18; 1.60 with Asp48; 3.68 with Asp52; 0.90 with Asp66. For the same substance, the pKa with Asp87 is reported as 2.07; in the series with Cterm129, 2.75; in the series with Glu35, 6.20; in the series with Glu7 it was 2.85; with His15 it was 5.36; with Lys1 it was 10.90. Besides, the pKa with Lys116 is given as 10.40; with Lys13, 10.60; with Lys33 it was 10.60; in the series with Lys96, 10.80; with Lys97, 10.30; in the series with Nterm1 it was 7.90. Besides, the pKa with Tyr20 is reported as 10.30; in the series with Tyr23 it was 9.80; in the series with Tyr53, 12.10.
Take “Staphylococcal nuclease (SNase), form used for the Asp/Glu pKa values (Staphylococcus aureus)”: the pKa was 3.87 with Asp40; 2.16 with Asp95; 2.82 with Glu10; 3.81 with Glu101; 3.89 with Glu122; 3.75 with Glu129. For the same substance, the pKa was 3.76 in the series with Glu135; 4.32 with Glu43; 3.93 with Glu52; 3.49 in the series with Glu57; 3.76 in the series with Glu67; 3.31 with Glu73. For the same substance, the pKa with Glu75 is 3.26.
“Staphylococcal nuclease (SNase), form used for the histidine pKa values (Staphylococcus aureus)”: the pKa is recorded as 5.30 with His121, 5.73 with His124, 5.86 with His46 and 6.52 with His8.
